# Patent US20230392126A1, “TISSUE ORGANOIDS” (priority 2016, published 2023)
# How the values were obtained:
# [1] = tested on: mouse epidermal stem cells; experiment: Cell proliferation and differentiation of engineered mouse epidermal cells in vitro (cell cycle FACS, calcium shift western blot); assay type: cell-based
# Description: Primary human neonatal epidermal keratinocytes were obtained from Thermo Fischer® (C0015C), and cultured with Epilife® medium (Thermo Fischer, M-EPICF-500) with manufacturer's recommended procedures. Calcium shift was performed to induce differentiation of primary keratinocytes by increasing the calcium concentration in culture media to 1.5 mM.
# Propidium iodide (PI) staining followed by flow cytometry were used to determine the effect of cell cycle profiles. Mouse and human epidermal cells were cultured in two 6 cm cell culture dish for 24 hours, respectively. Cells were trypsinized, and 1×10^5 cells from each dish were collected, followed by one PBS wash. […] After staining, the cells were analyzed immediately using flow cytometer BD FACSCanto™ II (BD Biosciences, San Jose, CA) with an excitation wavelength at 488 nm and emission at 585 nm. DNA content and histograms of cell cycle distribution were analyzed using FlowJo™ software, version 10 (FLOWJO LLC, OR).
# Western blotting was performed as described previously (Blanpain et al.). […] Visualization and quantification was carried out with the LI-COR Odyssey® scanner and software (LI-COR Biosciences).
# Propidium iodide (PI) staining followed by flow cytometry were used to determine the effect of cell cycle profiles. […] DNA content and histograms of cell cycle distribution were analyzed using FlowJo™ software, version 10 (FLOWJO LLC, OR). […]
# [2] = Extinction and ethanol-induced reinstatement of CPP; assay type: in vivo, mouse; settings: 1 g/kg ethanol i.p., specificity control
# Description: Extinction and reinstatement of CPP: Following CPP acquisition, mice underwent extinction, in which the procedure was identical to that in the test day. In each extinction day, mice were allowed to explore the entire chambers for 20 min and time spent in each area was recorded. Extinction was performed until the CPP decreased to a level that was not different from that of the pretest in consecutive two days. On the following day of the last extinction, mice underwent reinstatement procedures, in which mice that were trained for cocaine CPP received an i.p. injection of 15 mg/kg cocaine, and mice that were trained for ethanol CPP received an i.p. injection of 1 g/kg ethanol. Immediate after injection, mice were allowed to explore the entire chambers for 20 min and time spent in each area was recorded.
# Specific methods: One group of GhBChE and one group of GWT mice (n=9 in each group) were trained for cocaine CPP 7 days after engraftment (FIG. 18A). Mice underwent pretest on Day 1, four days of cocaine conditioning day 2 to Day 5, and CPP test on Day 6. One group of GhBChE and one group of GWT mice (n=8 in each group) were trained for ethanol CPP 7 days after engraftment (FIG. 18B). Mice underwent pretest on Day 1, four ethanol conditioning day 2 to Day 5, and CPP test on Day 6. […]
# epidermal stem cells = experiment: Anchorage-independent growth in soft agar; settings: SCC cancer initiating cells as positive control
molecule,measurement,setting,value
"hBChE: modified human butyrylcholinesterase (E30-6, SEQ ID NO: 41), cocaine hydrolase, expressed from engineered epidermal cells / skin grafts (protein, Human mutant BChE) MHSKVTIICIRFLFWFLLLCMLIGKSHTEDDIIIATKNGKVRGMNLTVFGGTVTAFLGIPYAQPPLGRLRFKKPQSLTKWSDIWNATKYANSCCQNIDQSFPGFHGSEMWNPNTDLSEDCLYLNVWIPAPKPKNATVLIWIYGGGFQTGTSSLHVYDGKFLARVERVIVVSMNYRVGALGFLALPGNPEAPGNMGLFDQQLALQWVQKNIAAFGGNPKSVTLFGESSGAASVSLHLLSPGSHSLFTRAILQSGSANAPWAVTSLYEARNRTLNLAKLTGCSRENETEIIKCLRNKDPQEILLNEAFVVPYGTALGVNFGPTVDGDFLTDMPDILLELGQFKKTQILVGVNKDEGTWFLVGGAPGFSKDNNSIITRKEFQEGLKIFFPGVSEFGKESILFHYTDWVDDQRPENYREALGDVVGDYNFICPALEFTKKFSEWGNNAFFYYFEHRSSKLPWPEWMGVMHGYEIEFVFGLPLERRDNYTKAEEILSRSIVKRWANFAKYGNPNETQNNSTSWPVFKSTEQKYLTLNTESTRIMTKLRAQQCRFWTSFFPKVLEMTGNIDEAEWEWKAGFHRWNNYMMDWKNQFNDYTSKKESCVGL",effect of expression on cell proliferation / differentiation in vitro,[1],did not significantly change cell proliferation
same,ethanol-induced reinstatement of CPP,[2],similarly reinstated in both GhBChE and GWT mice
same,anchorage-independent growth (tumorigenicity),epidermal stem cells,cannot grow in suspension
